Read-outs that look alike come from different tables or passages of the source. Where no end group is shown, it is not given here.
Key:
[1] = biological target: T1, alpha-CGRP (L) (Homo sapiens) (UniProt P06881); assay: ITC; details: L-RNA; 37 C, activity 80%
T1 sequence: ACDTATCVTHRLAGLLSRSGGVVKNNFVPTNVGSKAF

[2] = biological target: T2, D-CGRP (biotinylated, all-D alpha-calcitonin gene-related peptide) (Rattus norvegicus) (UniProt P01256); details: 2'-F pyrimidines
T2 sequence: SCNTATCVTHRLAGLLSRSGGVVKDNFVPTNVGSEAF

[3] = biological target: T2, D-CGRP (biotinylated, all-D alpha-calcitonin gene-related peptide) (Rattus norvegicus); assay: pulldown; details: 2'-F pyrimidines, bead assay, 37 C, unit uM, probably nM
[4] = biological target: T2, D-CGRP (biotinylated, all-D alpha-calcitonin gene-related peptide) (Rattus norvegicus); assay: SPR; details: 2'-F pyrimidines; clone shortened by two nucleotides; Biacore and ITC; higher by factor two at 37 C
[5] = biological target: T3, calcitonin receptor on SK-N-MC cells (human) (UniProt P30988); assay: cell-based or functional assay
T3 sequence (looked up): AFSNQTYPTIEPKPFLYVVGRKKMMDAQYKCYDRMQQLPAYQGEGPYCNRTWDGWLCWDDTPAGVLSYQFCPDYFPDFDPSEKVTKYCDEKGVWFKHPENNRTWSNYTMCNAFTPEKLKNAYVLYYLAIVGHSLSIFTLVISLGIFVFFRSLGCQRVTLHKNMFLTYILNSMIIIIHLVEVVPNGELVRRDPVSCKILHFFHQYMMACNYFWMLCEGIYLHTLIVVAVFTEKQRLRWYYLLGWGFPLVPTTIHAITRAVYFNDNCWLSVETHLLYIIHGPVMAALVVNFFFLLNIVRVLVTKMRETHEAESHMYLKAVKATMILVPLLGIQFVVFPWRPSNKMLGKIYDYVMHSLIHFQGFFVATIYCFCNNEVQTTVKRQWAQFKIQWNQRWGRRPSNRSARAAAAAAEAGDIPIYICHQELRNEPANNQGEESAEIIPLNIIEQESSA

[6] = biological target: CGRP receptor on SK-N-MC cells; assay: cell-based or functional assay
CGRP (biotinylated) = biological target: T4, CGRP (biotinylated) (Rattus norvegicus, UniProt P01256 P01256:83-119); assay: SPR; KD in narrow band around G12; details: protein: synthetic; tags: biotin; synthetic peptide, Jerini
T4 chain: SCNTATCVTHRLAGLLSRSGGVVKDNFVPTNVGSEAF

[7] = biological target: CGRP receptor on SK-N-MC cells; assay: cell-based or functional assay; remark: listed apart in the source
[8] = biological target: calcitonin receptor-like receptor (CRLR) on SK-N-MC cells (human) (UniProt Q16602); assay: cell-based or functional assay
[9] = biological target: T3, calcitonin receptor on SK-N-MC cells (human); assay: cell-based or functional assay; remark: listed apart in the source

Sequence of calcitonin receptor-like receptor (CRLR) on SK-N-MC cells (human) (Q16602 23-461): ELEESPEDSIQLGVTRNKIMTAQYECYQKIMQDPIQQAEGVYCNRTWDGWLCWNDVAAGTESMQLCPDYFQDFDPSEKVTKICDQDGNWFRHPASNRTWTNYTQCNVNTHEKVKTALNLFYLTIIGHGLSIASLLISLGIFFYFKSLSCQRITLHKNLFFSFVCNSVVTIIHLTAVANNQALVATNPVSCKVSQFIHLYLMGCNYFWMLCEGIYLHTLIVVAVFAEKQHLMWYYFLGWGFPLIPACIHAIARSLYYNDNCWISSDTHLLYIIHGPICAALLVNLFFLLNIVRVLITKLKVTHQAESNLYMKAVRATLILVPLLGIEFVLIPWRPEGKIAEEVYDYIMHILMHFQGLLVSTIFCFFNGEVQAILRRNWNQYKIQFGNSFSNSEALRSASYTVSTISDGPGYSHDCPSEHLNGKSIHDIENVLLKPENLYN

For “GGACUGAUGGCGCGGUCCUAUUACGCCGAGAAGGGAGUGGGGGA [L097 (NOX-504-097) spiegelmer]”, the Kd [1] was 0.052 µM.

“GGCAGCCUUGCUGCAGCACGCACGUAUGAUAGUUUCCUUUGGACUCCUGCC [732_103]” was tested, and the Kd [2] was 20000 nM.

With “GGAGCUCAGCCUUCACUGCAGUGACGCACGUAUGAUAGUUUCCAUUUUGGACUCCUGGGCACCACGGUCGGAUCCAC [clone 732]” the Kd [3] was 23 µM, the Kd ([2]; 666 with G20-A21 excised (in analogy to clone 732)) was 20000 nM and the Kd [4] was 10000 nM.

“GGCAGCCUUCACUGCAGUGACGCACGUAUGAUAGUUUCCAUUUUGGACUCCUGCC [732_026]” showed a Kd ([2]; stem shortened to five base pairs, FIG. 7) of 30000 nM.

Molecule “GGCAGCCUUCCUGCAGGACGCACGUAUGAUAGUUUCCUUUGGACUCCUGCC [732_100]” has a Kd ([2]; 51mer) of 75000 nM.

Molecule “CGCAGCCUUCACUGCAGUGACGCACGUAUGAUAGUUUCCAUUUUGGACUCCUGCG [732_045]” has a Kd [2] of 30000 nM.

Molecule “GGCUCAGCCUUCACUGCAGUGACGCACGUAUGAUAGUUUCCAUUUUGGACUCCUGGGCC [732_029]” has a Kd [2] of 30000 nM.

Work on “human amylin (from UniProt P10997 34-70) (peptide)” yielded an EC50, cAMP production in SK-N-MC cells [5] of 3 µM.

For “CGCUCAGCCUUCACUGCAGUGACGCACGUAUGAUAGUUUCCAUUUUGGACUCCUGGGCG [732_096]”, the Kd [2] was 30000 nM.

For “GGCAGCCUUCACUGCAGUGACGCACGUAUGAUAGUUUCCAAG / CUUGGACUCCUGCC [732_071a+732_071b]”, the Kd ([2]; two-strand binder) was 100000 nM.

For “GGAGCUCAGCCUUCACUGCGAAGUGACGCACGUAUGAUAGUUUCCAUUUUGGACUCCUGGGCACCACGGUCGGAUCCAC [clone 666]”, the Kd ([2]; unit uM, probably misprint for nM, method not specified here (Biacore/ITC in Ex. 1)) was 10000 nM.

For “GGCAGCCUUCCUGCAGGACGCACGUAUGAUAGUUUGCUUUGCACUCCUGCC [732_104]”, the Kd [2] was 40000 nM.

For “human α-CGRP (from UniProt P06881 83-119) (peptide)”, the EC50, intracellular cAMP in SK-N-MC cells [6] was 1 µM.

B1: G12e (ssRNA)
RNA: GGAGCUCAGCCUUCACUGCAUCGAGGCGAUCCAAGUUGUAGGAAUUGGAUGACUUGGAGGGCACCACGGUCGGAUCCAG
B1: binds (CGRP (biotinylated)).

B2: G12g (ssRNA)
RNA: GGAGCUCAGCCUUCACUGCAUCGAAGCGAUCCAAGUUGUAGGAAUGGGGUAGCUUGGAGGGCACCACGGUCGGAUCCAG
B2: binds (CGRP (biotinylated)).

Molecule SCNTATCVTHRLAGLLSRSGGVVKDNFVPTNVGSEAF (peptide, UniProt P01256 83-119, looked up, ends and bridges not checked; cysteine pairing not given here) [rat α-CGRP (calcitonin gene-related peptide I, rat)] has an EC50, intracellular cAMP in SK-N-MC cells [7] of 1 µM and a cAMP formation in SK-N-MC cells, half-maximum activation [7] of 1 nM.

ACNTATCVTHRLAGLLSRSGGMVKSNFVPTNVGSKAF (peptide, UniProt P10092 82-118, looked up, ends and bridges not checked; cysteine pairing not given here) [human β-CGRP (calcitonin gene-related peptide II)] gave an EC50, intracellular cAMP in SK-N-MC cells [7] of 1 µM.

B3: G12f (ssRNA)
RNA: GGAGCUCAGCCUUCACUGCAUCGAGGGCGAUCCAAGUUGUAGGAAUGGGGUGGCUUGGAGGGCACCACGGUCGGAUCCAG
B3: binds (CGRP (biotinylated)).

B4: human adrenomedullin (peptide, UniProt P35318 95-146, looked up)
peptide: YRQSMNNFQGLRSFGCRFGTCTVQKLAHQIYQFTDKDKDNVAPRSKISPQGY
B4 showed an EC50, cAMP production in SK-N-MC cells [8] of 30 µM and an EC50, intracellular cAMP in SK-N-MC cells [8] of 0.03 µM.

KCNTATCATQRLANFLVRSSNNLGPVLPPTNVGSNTY (peptide, UniProt P12969 38-74, looked up) [rat amylin] showed an EC50, cAMP production in SK-N-MC cells [9] of 1 µM.

B5: G12c (ssRNA)
RNA: GGAGCUCAGCCUUCACUGCAUCGAGGCGAUCCAAGUUGAGGAAUGGGGUGGCUUGGAGGGCACCACGGUCGGAUCCAG
B5: binds (CGRP (biotinylated)).

YRQSMNQGSRSTGCRFGTCTMQKLAHQIYQFTDKDKDGMAPRNKISPQGY (peptide, UniProt P43145 94-143, looked up) [rat adrenomedullin] was tested, and the EC50, cAMP production in SK-N-MC cells [8] was 30 µM and the EC50, intracellular cAMP in SK-N-MC cells [8] was 0.03 µM.

B6: G12a (ssRNA)
RNA: GGAGCUCAGCCUUCACUGCAUCGAGGCAUCCAAGUUAUAGGAAUAGGGUGGCUUGAAGGGCACCACGGUCGGAUCCAG
B6: binds (CGRP (biotinylated)).

B7: G12b (ssRNA)
RNA: GGAGCUCAGCCUUCACUGCAUCGAGGCAUCCAAGUUAUAGGAAUAGGGUGGCUUGAAGGGCACCACGGUCGGAUCCAG
B7: binds (CGRP (biotinylated)).

B8: G12d (ssRNA)
RNA: GGAGCUCAGCCUUCACUGCAUCGAAGGCGAUCCAAGUUGUAAGAAUGGGGGUGGCUUGGAGGGCACCACGGUCGGAUCCAG
B8: binds (CGRP (biotinylated)).

Reference: patent US20060183700A1, “Cgrp binding nucleic acids” (NOXXON Pharma AG, published 2006)
